From the DeepSol protein solubility set

experiment: soluble on expression in E. coli; label from the status in PepcDB or PDB records

| Sequence | soluble on expression in E. coli |
| --- | --- |
| MATFMTEDFLLKNDIARTLYHKYAAPMPIYDFHCHLSPQEIADDRRFDNLGQIWLEGDHYKWRALRSAGVDESLITGKETSDYEKYMAWANTVPKTLGNPLYHWTHLELRRPFGITGTLFGPDTAESIWTQCNEKLATPAFSARGIMQQMNVRMVGTTDDPIDSLEYHRQIAADDSIDIEVAPSWRPDKVFKIELDGFVDYLRKLEAAADVSITRFDDLRQALTRRLDHFAACGCRASDHGIETLRFAPVPDDAQLDAILGKRLAGETLSELEIAQFTTAVLVWLGRQYAARGWVMQLHIGAIRNNNTRMFRLLGPDTGFDSIGDNNISWALSRLLDSMDVTNELPKTILYCLNPRDNEVLATMIGNFQGPGIAGKVQFGSGWWFNDQKDGMLRQLEQLSQMGLLSQFVGMLTDSRSFLSYTRHEYFRRILCNLLGQWAQDGEIPDDEAMLSRMVQDICFNNAQRYFTIK | not soluble |
| MATKARVMYDFAAEPGNNELTVNEGEIITITNPDVGGGWLEGRNIKGERGLVPTDYVEILPSDGKDQFSCGNSVADQAFLDSLSASTAQASSSAASNNHQVGSGNDPWSAWSASKSGNWESSEGWGAQPEGAGAQRNTNTPNNWDTAFGHPQAYQGPATGDDDDWDEDWDGPKSSSYFKDSESADAGGAQRGNSRASSSSMKIPLNKFPGFAKPGTEQYLLAKQLAKPKEKIPIIVGDYGPMWVYPTSTFDCVVADPRKGSKMYGLKSYIEYQLTPTNTNRSVNHRYKHFDWLYERLLVKFGSAIPIPSLPDKQVTGRFEEEFIKMRMERLQAWMTRMCRHPVISESEVFQQFLNFRDEKEWKTGKRKAERDELAGVMIFSTMEPEAPDLDLVEIEQKCEAVGKFTKAMDDGVKELLTVGQEHWKRCTGPLPKEYQKIGKALQSLATVFSSSGYQGETDLNDAITEAGKTYEEIASLVAEQPKKDLHFLMECNHEYKGFLGCFPDIIGTHKGAIEKVKESDKLVATSKITLQDKQNMVKRVSIMSYALQAEMNHFHSNRIYDYNSVIRLYLEQQVQFYETIAEKLRQALSRFPVM | soluble |
| MATKFNRILVGVDDSADALLAFDYAIHQAKQDGAELVIISILENDEMNVYQALSKDYIHGERQELEQHILKYQKQAQAAGVTKVHAMIAEGEPGETIVKEVIPHVQPDLLIIGSLAKKGIAKHFGSQAAYMAKYAPISVLVIR | not soluble |
| MATNESLKEQLAKRNGRKPAANGNGEPITLKALLASPKVKKRFEEVLDKRAPQFMTSIINLYSNDSGLQKCDPMTVISSAMVAASLDLPIDKNLGYAWIVPYYDRKTKSYRAQFQLGYKGYIQLALRSGQYRYINAIPVRKGELIKWDPLTEEIEIDFEARESDEVIGYAAFFELLNGFRKTVYWRKEDVEAHRQKYSKSGFGWENDWDAMALKTVIKSLLSRWGILSVEMQKAVIEDDEERLNPPADNVVEIEPEKPEVPENDEPVFELPLDVEVEVPFEEDEKDGDDQEG | not soluble |
| MATQRAHRAETPAHPNRLWIWEKHVYLDEFRRSWLPVVIKSNEKFQVILRQEDVTLGEAMSPSQLVPYELPLMWQLYPKDRYRSADSMYWQILYHIKFRDVEDMLLELIDSESNDE | soluble |
| MATSKILLYYAFTPLSDPKAVQLWQRELCESLNLRGRILISTHGINGTVGGDIDDCKAYIKKTREYPGFNRMQFKWSEGGAEDFPKLSVKVRDEIVAFGAPDELKVDENGVVGGGVHLKPQQVNELVEARGDEVVFFDGRNAMEAQIGKFKDAVVPDVETTHDFIAEIESGKYDDLKDKPVVTYCTGGIRCEILSSLMINRGFKEVYQIDGGIVRYGEQFGNKGLWEGSLYVFDKRMHMEFGEDYKEVGHCIHCDTPTNKFEHCLNEDDCRELVLMCPDCFANVETRHCKRERCAAIAADFAEQGIDPLVTS | not soluble |
| MATSSSAFDDELPMEEGMPELLDDEDVPSTLPSLLEQNLDTAPKGDEFKLVKRKRKSGNAIDVVMEDVSQVDEDATADTADDSTGPKSSKRTKGVKGESRVVPVPKHRYTPLKDNWVNIFTPIVKNLGLQVRFNLKKRQVEIRNPVDREDTTDLQKATDFVRAFILGFEVNDAIALIRLDHLFLETFEVADVKHSLKGDHVSRAIGRIAGKDGRTKLVIENTTKTRIVVANTKIHILGAYQNLKLARNAVCSLILGSNPSKVYGSLRNMASRGAERL | not soluble |
| MATTAQKIKEVEDEMAKTQKNKATAKHLGMLKAKLAKLKRELITPTGGGGGGGLGFDVARTGIGTVGFIGFPSVGKSTLMTQLTGTRSEAAAYEFTTLTTVPGVLQYNGAKIQILDLPGIIEGAKDGRGRGKQVITVARTCNLIFIVLDVLKPMSHKRIIEEELEGFGIRLNKEPPNIVFKKKERGGINITNTVPLTHIDLDEIRAVCSEYRVNSADIAFRCDATIDDLIDVLEGNRVYIPALYVLNKIDSISIEELDLIDRIPNAVPICGNRGWNIDELKETMWDYLNLVRVYTRPRGLEPDYSEPVILRTGHSTVEDFCNNIHSSIKSQFKHAYVWGKSVPYPGMRVGLSHVLLDEDVVTIVKK | not soluble |
| MATTTPERVMQETMDYHALNAMLNLYDKAGHIQFDKDQQAIDAFFATHVRPHSVTFASQHERLGTLVREGYYDDAVLARYDRAFVLRLFEHAHASGFRFQTFLGAWKFYTSYTLKTFDGKRYLEHFEDRVTMVALTLAQGDETLATQLTDEMLSGRFQPATPTFLNCGKQQRGELVSCFLLRIEDNMESIGRAVNSALQLSKRGGGVAFLLSNLREAGAPIKRIENQSSGVIPVMKMLEDAFSYANQLGARQGAGAVYLHAHHPDILRFLDTKRENADEKIRIKTLSLGVVIPDITFRLAKENAQMALFSPYDIQRRYGKPFGDIAISERYDELIADPHVRKTYINARDFFQTLAEIQFESGYPYIMFEDTVNRANPIAGRINMSNLCSEILQVNSASRYDDNLDYTHIGHDISCNLGSLNIAHVMDSPDIGRTVETAIRGLTAVSDMSHIRSVPSIAAGNAASHAIGLGQMNLHGYLAREGIAYGSPEALDFTNLYFYTITWHAVHTSMRLARERGKTFAGFAQSRYASGDYFTQYLQDDWQPKTAKVRALFARSGITLPTREMWLKLRDDVMRYGIYNQNLQAVPPTGSISYINHATSSIHPIVAKIEIRKEGKTGRVYYPAPFMTNENLDMYQDAYDIGPEKIIDTYAEATRHVDQGLSLTLFFPDTATTRDINKAQIYAWRKGIKSLYYIRLRQLALEGTEIEGCVSCAL | soluble |
| MATVSTNEFKGGLKIMLDNEPCVILENEYVKPGKGQAFNRVRIRKLLTGKVLEKTFKSGDTAEVADVVDIDLDYLYNDGEFYHFMNNSTFEQLAADAKAVGENAKWLVENNTCMLTLWNGNPIAVTPPNFVELEVTETDPGVKGDTQGTGGKPATLSTGAVVRVPLFVQIGEVIKVDTRSAEYVGRVK | soluble |
| MAVASTSTSDGMLTLDLIQEEDPSPEEPTSCAESFRVDLDKSVAQLAGSRRRADSDRIQPSADRASSLSRPWEKTDKGATYTPQAPKKLTPTEKGRCASLEEILSQRDAASARTLQLRAEEPPTPALPNPGQLSRIQDLVARKLEETQELLAEVQGLGDGKRKAKDPPRSPPDSESEQLLLETERLLGEASSNWSQAKRVLQEVRELRDLYRQMDLQTPDSHLRQTTPHSQYRKSLM | soluble |
| MAVCGLGSRLGLGSRLGLRGCFGAARLLYPRFQSRGPQGVEDGDRPQPSSKTPRIPKIYTKTGDKGFSSTFTGERRPKDDQVFEAVGTTDELSSAIGFALELVTEKGHTFAEELQKIQCTLQDVGSALATPCSSAREAHLKYTTFKAGPILELEQWIDKYTSQLPPLTAFILPSGGKISSALHFCRAVCRRAERRVVPLVQMGETDANVAKFLNRLSDYLFTLARYAAMKEGNQEKIYMKNDPSAESEGL | not soluble |
| MAVKQPVPKDPAKVERIMHAAMHTFAVSGYRDAKTDVIASAATVSKGLLFHYYGSKQRLYLATVQLATDTIIATINQQVFDVPDDLVTLMVRSARYKAAFGKDHPDEMKVLIDAYGALERLPVKIQAQMKILYTKSMTISREMISQVLDKMTLRADVDRDATIALIMGVYNQIFMEFQTYMRENHQVESMADIEWVVSRAKTYMGILEHGFMAADLDDQQ | not soluble |
| MAVLYKSFQSVLEDKNHKKMFHPRVIYTANISTSQIAKEIAAYSSLSPGDVKNTLDNLVTVMGQHLQASESVSLDGFGTFRMVMKSNGKGVETSEEVSAAQASLTVRFLPNFTKNPDRTTATRSLVTGAKCVRFDRTDTPASGSGNTNKPGGGDGGEGGGEEAPDPTV | not soluble |
| MAVQFEFYKNPVQGEEEGETSYHPRVVNFQHVTTQRLAVEIHSATTFGKAEVEAMLMELSRCMGNHLREGQRVHLDGVGYFQITLQATEPIHSMAAHADKVKFKSVSFLADRDLKGELIGMHAQRSKYKPHSATLSQEEIDKKLTGYFATHTVLTRSDMQSLCQFTHSMAARHIRRLKEEGSLQNIGIRTQPIYVPCPGHYGK | not soluble |
| MAWYEGAFFYQIFPDRFFRAGPPGRPAPAGPFEPWEAPPTLRGFKGGTLWGVAEKLPYLLDLGVEAIYLNPVFASTANHRYHTVDYFQVDPILGGNEALRHLLEVAHAHGVRVILDGVFNHTGRGFFAFQHLMENGEQSPYRDWYHVKGFPLKAYTAHPNYEAWWGNPELPKLKVETPAVREYLLAVAEHWIRFGVDGWRLDVPNEIPDPTFWREFRQRVKGANPEAYIVGEIWEEADFWLQGDMFDAVMNYPLARAVLGFVGGEALDRDLAAQTGLGRIEPLQALAFSHRLEDLFGRYRPEVVRAQMNLLTSHDTPRLLSLMRGSVERARLALALLFLLPGNPTVYYGEEVGMAGGKDPENRGGMVWEEARWQKDLRETVKRLARLRKEHPALRTAPYLRIYAQDGHLAFARGPYLAVVNASPHPFRQDFPLHGVFPRGGRAVDLLSGEVCTPQGGRLCGPVLPPFSLALWREA | soluble |
| MAYDLWYWDGIPGRGEFVRLALEAGKIPYRDRAREPGEDMLADMRRRRDTAPFAPPYLVADGMTIAQTANILLFLGVEHGLAPPDRAGRLWVNQLQLTIADLTAEAHDVHHPVAAGLYYEDQQDVALRRAADFRETRMPKFMQYFEQALDRPGGWLTDMGRWSYADLSLYHVVEGLLHAFPRRMRTLMHRYPRLMTLHARVAELPELRGYLASDRRLPFGDGIFRHYPELDGA | not soluble |
| MAYSKIRQPKLSDVIEQQLEFLILEGTLRPGEKLPPERELAKQFDVSRPSLREAIQRLEAKGLLLRRQGGGTFVQSSLWQSFSDPLVELLSDHPESQFDLLETRHALEGIAAYYAALRSTDEDKDRIRELHHAIELAQESGDLDAESEAVLQYQIAVTEAAHNVVLLHLLRCMEPMLAQNVRQNFELLYARREMLPLVSTHRTRIFEAIMAGKPEEAREASHRHLAFIEEIMLDRSREESRRERALRRLEQRKN | not soluble |
| MAYWLMKSEPDEFSISDLQRLGKARWDGVRNYQARNFLRTMAEGDEFFFYHSSCPEPGIAGIGKIVKTAYPDPTALDPDSHYHDAKATTEKNPWSALDIGFVDIFKNVLGLGYLKQQSQLEQLPLVQKGSRLSVMPVTAEQWAAILALRLEHHHHHH | soluble |
| MCEIFAKQPQDNYQFITRSIRIDGHATSVKLESSFWTILEEIASAQDMTVPKFISTVYQEALEYNGEVNNFASLLRCACLTYARQPENTLHQALAQLN | not soluble |
| MCFWPVWNGKHCPHSTGMPATLPGHRKPTFSWPVSISVMKMPDTHTMVATVSRRILPGKPRQCFSLAVLILPLLEHGGYAITELTVTRRNTCGYSFVSGCPTVFSSRDLVGSGEEVRQARDTFLYINTDPTQGWIHYEPAAFSAGAQNKHLPMASLTGSGKHPAAARLNPVSRGPQFITVSLIIALLGTAWYGWQYYERWQTEKAAQAAVARQATEERITPPWPGLPETDAFIRGCADIWTSLPLSAAGWRYSLAECSTDGGSGNLRASYTNTAGATVTDFIRRISDMTDSRPFIVMPEGKTGGIGLPVTFRLSENAVTVDALPETAVLQERLTSLAQSMQLKLDWQEVNNSVTDENGQIIQPPWKEYDLQIQTTLPAHHLAERLKEPSVRFISVTRQLENGRFHYQFTGKYYARLEHHHHHH | not soluble |
